Reference: publication PMC2196413 (The Journal of Cell Biology, 2001)

T1: GST fusion protein with the cytoplasmic domain of JAM (human, UniProt Q9Y624 260-299)
T1 chain (looked up): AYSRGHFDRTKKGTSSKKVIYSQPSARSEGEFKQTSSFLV


Target: T1, GST fusion protein with the cytoplasmic …
Experiment: pull-down

| Kd [nM] | Binder |
| --- | --- |
| 110 | MBP fusion protein with NH2-terminal half of ZO-1 (domain or fragment) MSARAAAAKSTAMEETAIWEQHTVTLHRAPGFGFGIAISGGRDNPHFQSGETSIVISDVLKGGPAEGQLQENDRVAMVNGVSMDNVEHAFAVQQLRKSGKNAKITIRRKKKVQIPVSHPDPEPVSDNEDDSYDEEVHDPRAGRGALANRRSEKSWARDRSASRERSLSPRSDRRSVASSQPAKPTKVTLVKSRKNEEYGLRLASHIFVKEISQDSLAARDGNIQEGDVVLKINGTVTENMSLTDAKTLIERSKGKLKMVVQRDERATLLNVPDLSDSIHSANASERDDISEIQSLASDHSGRSHDRPPRRSQSRSPDQRSEPSDHSTQSPQQPSNGSLRSREEERMSKPGAISTPVKHVDDHPPKAVEEVTVEKNEKQTPTLPEPKPVYAQVGQPDVDLPVSPSDGALPNSAHEDGILRPSMKLVKFRKGDSVGLRLAGGNDVGIFVAGVLEDSPAAKEGLEEGDQILRVNNVDFTNIIREEAVLFLLDLPKGEEVTILAQKKKDVYRRIVESDVGDSFYIRTHFEYEKESPYGLSFNKGEVFRVVDTLYNGKLGSWLAIRIGKNHKEVERGIIPNKNRAEQLASVQYTLPKTAGGDRADFWRFRGLRSSKRNLRKSREDLSAQPVQTKFPAYERVVLREAGFLRPVTIFGPIADVAREKLAREEPDIYQIAKSEPRDAGTDHRSSGIIRLHTIKQIIDQDKHALLDVTPNAVDRLNYAQWYPIVVFLNPDSKQGVKTMRMRLCPESRKSARKLYERSHKLRKNNHHLFTTTINLNSMNDGWYGALKEAIQQQQNQLVWVSEGKADGATSDDLDLHDDRLSYLSAPGSEYSMYSTDSRHTSDYEDTDTEGGAYTDQELDETL |
| 75 | MBP-PDZ1/2/3–PAR-3 (domain or fragment) MVKLVQVPNDGGPLGIHVVPFSARGGRTLGLLVKRLEKGGKAEQENLFHENDCIVRINDGDLRNRRFEQAQHMFRQAMRARVIWFHVVPAANKEQYEQLSQREMNNYSPGRFSPDSHCVANRSVANNAPQALPRAPRLSQPPEQLDAHPRLPHSAHASTKPPTAPALAPPNVLSTSVGSVYNTKRVGKRLNIQLKKGTEGLGFSITSRDVTIGGSAPIYVKNILPRGAAIQDGRLKAGDRLIEVNGVDLAGKSQEEVVSLLRSTKMEGTVSLLVFRQEEAFHPREMNAEPSQMQSPKETKAEDEDIVLTPDGTREFLTFEVPLNDSGSAGLGVSVKGNRSKENHADLGIFVKSIINGGAASKDGRLRVNDQLIAVNGESLLGKANQEAMETLRRSMSTEGNKRGMIQ |
